# Assay: yeast display, Sf9 membrane polyspecificity reagent, FACS + sequencing; frameworks hold sequencing errors
# Summary of the method: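 Nanobodies from a synthetic yeast display library (Saccharomyces cerevisiae BJ5465), induced 36–48 hours with galactose, were stained 1 hour at 4 °C with 10% biotinylated, detergent-solubilized Sf9 membrane reagent, enriched on streptavidin microbeads, then FACS-sorted. Anti-HA (expression) and streptavidin (reagent binding) fluorescence set low and high (top ~1%) gates. Polyreactivity labels come from the gate of origin. Genes were colony-PCR amplified, MiSeq 2 × 250 sequenced and filtered by CDR length.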
row,Sequence,polyreactivity (PSR sort gate)
1,QVQLVESGGGLVQAGGSLRLSCAASGSIFSIYAMGWYRQAPGKERELVAAISSGGSTYADSVKGRFTISRDNAKNTVYLQMNSLKPEDTAVYYCAADRRGYRGYDYWGQGTQVTVSS,low polyreactivity
2,QLQLVESGGGLVQAGGSLRLSCASTGSIFRPSPMGWYRPAPGKDRELVPDITWSGGSTYYADSVKGRFTISRDNAKNTVYLQMNSLKPEDTAVYYCAARFSYWARNSEYWGQGTQVTVSS,low polyreactivity
3,QVQLVESRGGLLQAGGTLRLSCAASGLTITTYTMGWSIQAPGTERELVASINYRGGRTYYADSVKGRFSISRDNAKNTVYLQMNSLKPEDTAVYYCAKSRYYRRRQYYHYDYCGQGTQVTVSS,high polyreactivity
4,QVQLVESGGGLVQAGGSLRLSCAGSGSTFYRYALGWYRQAPGKEWEWVAVINSGCSTYYADSVKGRFTISRDNAKHTVYVQMNSMKPEDTAVSYCAAVRNQGGYVYGYGYWGQGTQVTVSS,high polyreactivity
5,QVQLVESGGGLVQAGGSLRLSCAASGSTFYYYAMGWYRQAPGKERELVASITTGGGSTYYADSVKGRFTISRDNAKNTFYLEMNSLKPEDTAVYYCAAALSYYFWWYDYLGQGTQVTVSS,low polyreactivity
6,QVQLVESGGGLVQAGGSLRLSCAASGRIFSRNAMGWYRQAPGKERDLVAAITWRGGSTNYADSVKGRFTISRDNAKNTVYLQMNSLKPEDTAVYYCAARISRYPQDDSDYWGQGTQVTVSS,high polyreactivity
7,QVQLVESGGGLVQAGGSLRLSCAASGIILPYYAMGWYRQAPGKERELGASISYDGTSTYYADSVKGRFTISRDNAKNTVYLQMNSLKPEDTAVYYCAAVQWWPRASYSMDYWGQGTQVTASS,low polyreactivity
8,QVQLVESGAGLVQAGGSLRLSCAASGRTFGRYAMAWYRQAPGKERELVAAINNGGGTYYADSVKGLFTISRDNAKNTVYLLINSLYPEDTAVYYCAAATRKRVGSYYYWGQGTQVTVSS,high polyreactivity
9,QVQLVESGGGLVQAGGSLRLSCAASGSTFSDNAMGWYRQAPGKERELVAAITSGGSTYYADSVKGRFTISRDNAKNTVYLQMNSLKPEDTAVYYCAADYWGQGTQVTVSS,low polyreactivity
10,QDQLVESGGGLVQAGGSLRLTCAASGSIFTAYTMGWYRQAPVKERELVAAITERGGSTYYADSVKGRFTISRDNAKNTFYLQMNRMKPEDTAVYYCAASTLKDIYLWFRVDYWGQGTQVTLSS,low polyreactivity
11,QVQLVESVGGLVQAGGSLRLTCAASVSIIRYNAMGWYRQAPGKERELVAAITKGAGSTYYADSVKGRFTISRDNAKNTVYLQMNSLKPEDTAVYYCAAAGGTSRRTIYTAFYYWGQGTQVTVSS,high polyreactivity
12,QVQLVESGGGLVQAGGSLRLSCAASGRTFGFNVMGRYRQAPGKERELVAAISWSGGSTYYADSVKGRFTISRDNAKNTVYLQMTSLKPEDTAVYYCNKRYVHRYGYWGQGTQVTVSS,low polyreactivity
13,QVQLVESGGGLVQAGGSLRLSCAASGNIFAIYARGWYRQAPGKEREFVAAIDWSVASTYYADSVKGRFTISRDNEKNTVYLQMNSLTPEDTAVYSSAAELYGLKYGYYLSYDYWGQGTQVTVSS,high polyreactivity
14,QVQLVESGGGLVQAGGSLRLSCAASGSIFDTYAMGCYRPAPGKERELVAAICWSDTSTYADSVKGRFTISRDNAKNTVYLQMNSMKTEDTAVSYCAADFYYYSYYEYVYWGQGTLVTVSS,low polyreactivity
15,QVHLVESGGGLVQAGGSLRLSCAASGSTIDIYDMGWYRQAPGKERELVAAISIGTYADSVKGRFTISRDNAKNTVYLQMNSLKPEDTAVYYCAAQTDTWGYGYDYWGQGTQVTVSS,high polyreactivity
16,QVHLVESGGGLVQAGGSLRLSCAASGNIIDSNAMGWYRHAPGKERELVAAITWSGGSTYYADSVKGRFTISRDNAKTTVYLPMNSLKPADTAVYYCAAYAQKRYYWGQGTQVTVSS,high polyreactivity
17,QVQLVESGGGLVQAGGSLRLSCAASGSIFHRYAMGWYRQAPGKERELVAAINRGGSSYADSVKGRFTISLDNAKNTVYLQMNRLNPEDTAVYYCATRNIGRSTGPFYWGYYYWGQGTQVTVSS,high polyreactivity
18,QVQLVETGGGLVQAGGSLRLSCAASGRIFLGYAMGCYRQAPGKERELVAAISGRGGRTNYADSVKGRFTISRDNAKNTVYLQMNSLKPEDTAVYYCATVPYTASRYEYWGQGTQVTVSS,high polyreactivity
19,QVPLVESGGGLVQAGCSLRLSCAASGSIFTRDAMGWYRPAPGKERELVAAISAGGGTTYYADSVKGRFTNSRDNAKNTVYLLMNSLKPEDSSVFYCAKRSRSGYYADDSWGHGTQVTVSS,high polyreactivity
20,QVQLVESGGGLVQAGGSLRLSCAASGFTFVSYAMGWYRQAPGKERELVATITSDGSTNYADSVKGRFTISRDNAKNTVYLQMNSLKPEDTAVYYCAADIHYYPGYLAYDYWGQGTQVTVSS,low polyreactivity
21,QVQLVESGGGLVQAGGSLRLSCAASGRIFSNYAMGWYRQAPGKERELVAAISRGGGRTFYADSVKGRFTISRDNAKNTVYLQMNSLKPEDTAVYYCATRSYYVKGDYWGQGTQVNVSS,high polyreactivity
22,QVQLVESGGGLVQAGGSLRLSCAASGRTFARNAMGWYRPAPGKERELVAAIPRSGGSTYYADSVKGRFTISRDNAKNTVYLQMNSLKPEDTADYYCAAVGTGSSLRYDYWGQGTQVTVSS,high polyreactivity

row,Sequence,polyreactivity (PSR sort gate)
1,QVQLVESGGGLVQAGGSLRLSCAASGITFWTYAMGWYIQAPGKERELVAAISNGGSTSYADSVKGRFTISRDNAKNTVYLQMNSLKPEDTAVYYCAADWATHRPWYWWVYYWGQGTQVTVSS,low polyreactivity
2,QVQLLESGGGLVQAGGSLRLSCAASGRIFASYAMGWYRQAPGKARELVAAISTGGNTYYADSVKGRFTISRDNAKNTVYLQMNSLKPEDTAVYDCAALSGAHEHFVEYDYWGQGTQVTVSS,low polyreactivity
3,QVQLVESGGGLVQAGGSLRLSCAASGITFNRYSMGWYRQAPGKERELVARISLRGGNTYYADSVKGRFTISRDNAKNTVYLQMNSLKPEDPAVYYCNADLYRQYASRYHYWGQGTQVTVSS,high polyreactivity
4,QVQLVESGGGLDQAGGRLRLSCPASGRIFQANAMGRYRQAPGKERELVAAITNRGGSTYADSVKGRFTISRDNAKNTVYLQMNSLKPEDTAVYYCAADVSRYVQRDNYWGQGTQVTVSS,low polyreactivity
5,QVQLVESGGGLVQAGGSLRLSCAASGLTFSTYAMGWYRQAPGKERELVATITYSGSSTYADSVKGRFTIARDNAKNTVYLQMNSLKPEDTAVYFCAAVTYHGNPSEYFPDTVGFYYWGQGTQVTVSS,low polyreactivity
6,QVQLVESGGGLVQAGGSLRLSCAASGSIFVVYAMGWYRQAPGKERELVASIRTGGSTNYADSVKGRFTISRDNAKNTVYLQMNSLKPEDTAVYYCAAASWNCNRHYYVARYYYWGQGTQVNVSS,high polyreactivity
7,QVQLVESGGGLVQAGGSLRLSCAASGRNFYSYSMGWYRQEPGKERELVATITSNDGGTDYADSVKGRFTISRDNAKNTVYLQMNSLKPEDTAVYYCNAEDVLPEVGNRYNYWGQGTQVTVSS,low polyreactivity
8,QEQHVESAGGLVQAGGSLRLSCAASASIIYKYAMGWYRQAPGKERELVAAINSGGRTYYADSVKGRFTISRDNAKNTVYLQMNSLKPEDTAVYYCNAGTYYPGRYDYWGQGTQVTVSS,high polyreactivity
9,QVQLVESGGGLVQAGGSLRLSCAASGFTFSKYTMGWYRQAPGKERELVAAITSGGSTYYADSVKGRFTISRDNAKNTVYLQMNSLKPEDTAVYYCNAESRHVFEDEYWGQGTQVTVSS,low polyreactivity
10,QVQLVESGGGLVQAGGRLRLSCAASGRTFYSYTMGWYRPAPGKERELVAAIRYSGDRTYYADSVKGRFTISRDNAKNTVDLQMNSLKPEDTAVYYCGKAAPYPGSFYYWGQGTQVTVSS,low polyreactivity
11,QVQLLESGGGLVQAGGSLRLSCAASGRTFTLYTMGWYRQAPGKERELVAAISARGGSTYYADSVKGRFTISRDNAKNTVYLQMNSLKPEDTAVYYCAAESNRLRYYYWGQGTQVTVSS,high polyreactivity
12,QVQLVESGGGLVQAGGSLRLSCAASGSIFKSYAMGWYRQAPGKERELVAAISGRTGSTYYADSVKGRFTISRDNAKNTVSLQMNSLKPEDTAVYYCAAKSQSLYPFAMNYWGQGTQVTVSS,high polyreactivity
13,QVQHVESGGALVQAGGSLRLSCAASGSIFGDYAMGWYRQAPGKERELVAAITSDRDTYYADSVKGRFTISRDNAKNTVYLQMNSLKPEDTAVYYCNATYGGPYFIQYDYWGQGTQVTVSS,low polyreactivity
14,QDQLVESGGGLVQAGGSLRLSCAASRSIFPLYAMGWYRQATGKEREMVAAISYSGGRTYYADSVKGRFTISRDNAKNTVYLQMNSLKPEDTAVYYCNTRQRVIDDYWGQGTQVSVSS,high polyreactivity
15,QVQLVESRGGLVQAGGSLRLSCPASGSTFVSNAMGWYRQAPGKERELVAAISKSGGSTYYADSVKGRFTISRDNAKNTVYLQMISLKPEDTAVYYCAKYNAKSFYGQYDYWGQGTQVTVSS,high polyreactivity
16,QVQLVESGGGLVQAGGSLRLSCAASGSTFTLYVMGWYRQAPGKERELVAAITSSGDSTDYADSVKGRFTISRDNAKNTVYLQMNSLKPEDTAVYYCNVQPVYADHFTEFDYWGQGTQVTVSS,low polyreactivity
17,QVQLVESGGGLVQAGGSLRLSCAASGIIFIVNAMGWYRQAPGKERELVAAISNGGSTNYADSVKGRFTISRDNAKNTVYLQMNSLKPEDTAVYYCADDYSTWLRAYDYWGQGTQVTVSS,low polyreactivity
18,QVQLVESGGGLVQAGGSLRLSCAASGRIFPLYDMGWYRQAPGKERELVAAISSGGTTYYADSVKGRFTISRDNAKNTVYLQMNSLKPEDTEVYYCARRPAQRWGRFDYWVQGTQVTVSS,low polyreactivity
19,QVQLVESGGGLVQAGGSLRLSCAASGRIFGTYGMGWYRQAPGKERELVAAINWRGGSTYYADSVKGRFTISRDNAKNTVYLQMNSLKPEDTAVYYCNARLYRNRLGYWGQGTQVTVSS,high polyreactivity
20,QVQLVESGGGLVQAGGSLRLSCAASGFTFIRNAMGWYRQAPGKERELVAAISKRGGSTNYADSVKGRFTISRDNAKNTVYLQMNSLKPEDTAVYYCAAGGQVAWLDYYPMDYWGQGTQVTVSS,low polyreactivity
21,QVQLVESGGGLVQAGGSLRLSCAASGFTFRSNAMGWYRQAPGKERELVAAISYSGGDTYYADSVKGRFTISRDNAKNTVFLQMNSLKPEDTAVYYCAADDPASPLGEYWGQGTQVTVSS,low polyreactivity
